The values that follow come from patent US20250011363A1, “OPTIMIZED SHORTENED PEPTIDE THAT BINDS TO ACETYLCHOLINE RECEPTOR, AND USE THEREOF” (SKINMED CO., LTD., priority 2021, published 2025).

In test [1] the target is acetylcholine receptor. Put plainly: SPR, receptor immobilized on CM5 chip, peptide 10 uM.
In test [2] the target is acetylcholine receptor. Put plainly: SPR, AchR on chip, peptide 10 uM. Background: Surface plasmon resonance follows binding to a sensor surface in real time, without labels.

B1: 6mer-2-458 (peptide)
peptide: RRFQRR
The molecule B1 showed a Binding affinity (RU) with acetylcholine receptor [1] of 122 RU.

B2: 6mer-2-467 (peptide)
peptide: KQYSRR
For B2, the Binding affinity (RU) in the test with acetylcholine receptor [1] turned out to be 142 RU.

B3: 6mer-2-466 (peptide)
peptide: RLLTRR
B3 returned a Binding affinity (RU) with acetylcholine receptor [1] of 142 RU.

B4: 6mer-2-465 (peptide)
peptide: KGVSKR
B4 gave a Binding affinity (RU) in the test with acetylcholine receptor [1] of 122 RU.

B5: 5mer-328 (peptide)
peptide: RWVLK
In the case of B5, in the test with acetylcholine receptor [2], the Binding affinity (RU) is 61 RU.

B6: 6mer-2-451 (peptide)
peptide: RGRCKK
As to B6, the Binding affinity (RU) in the test with acetylcholine receptor [1] came to 148 RU.

B7: 6mer-2-420 (peptide)
peptide: RRQYRK
B7 registered a Binding affinity (RU) with acetylcholine receptor [1] of 128 RU.

B8: 6mer-2-438 (peptide)
peptide: RLLCRK
For B8, the Binding affinity (RU) with acetylcholine receptor [1] stood at 131 RU.

B9: 6mer-2-415 (peptide)
peptide: KGRCKK
The molecule B9 showed a Binding affinity (RU) in the test with acetylcholine receptor [1] of 149 RU.

B10: 6mer-2-462 (peptide)
peptide: KQICKR
For the molecule B10, the Binding affinity (RU) with acetylcholine receptor [1] turned out to be 145 RU.

B11: 6mer-2-464 (peptide)
peptide: KSFRKK
In the test with acetylcholine receptor [1], B11 yielded a Binding affinity (RU) of 135 RU.

B12: 6mer-2-436 (peptide)
peptide: KVLYKR
As to B12, in the test with acetylcholine receptor [1], the Binding affinity (RU) turned out to be 148 RU.

B13: 6mer-2-442 (peptide)
peptide: RLVQKR
In the case of B13, the Binding affinity (RU) with acetylcholine receptor [1] was determined as 139 RU.

B14: 6mer-2-422 (peptide)
peptide: RLITRR
B14: the Binding affinity (RU) with acetylcholine receptor [1] worked out at 154 RU.

B15: 6mer-2-461 (peptide)
peptide: KSVCRR
In turn, B15 had a Binding affinity (RU) with acetylcholine receptor [1] of 149 RU.

B16: 6mer-2-418 (peptide)
peptide: RVQYKK
Molecule B16 came in with a Binding affinity (RU) with acetylcholine receptor [1] of 121 RU.

B17: 6mer-2-410 (peptide)
peptide: KRFRKK
Regarding B17, the Binding affinity (RU) with acetylcholine receptor [1] is 153 RU.

B18: 6mer-2-412 (peptide)
peptide: KRFLKK
In the test with acetylcholine receptor [1], B18 returned a Binding affinity (RU) of 139 RU.

B19: 6mer-2-425 (peptide)
peptide: KLQTKK
As to B19, the Binding affinity (RU) with acetylcholine receptor [1] was determined as 145 RU.

B20: 5mer-330 (peptide)
peptide: RWQLR
B20 displayed a Binding affinity (RU) with acetylcholine receptor [2] of 86 RU.

B21: 6mer-2-437 (peptide)
peptide: KQVCKK
In turn, B21 came in with a Binding affinity (RU) with acetylcholine receptor [1] of 121 RU.

B22: 6mer-2-409 (peptide)
peptide: KRRRKR
In the test with acetylcholine receptor [1], B22 registered a Binding affinity (RU) of 139 RU.

B23: 6mer-2-433 (peptide)
peptide: RWIQKR
Turning to B23, in the test with acetylcholine receptor [1], the Binding affinity (RU) stood at 139 RU.

B24: 6mer-2-460 (peptide)
peptide: RSQCRK
In the test with acetylcholine receptor [1], B24 came in with a Binding affinity (RU) of 139 RU.

B25: 6mer-2-457 (peptide)
peptide: RRVYKR
B25 registered a Binding affinity (RU) with acetylcholine receptor [1] of 146 RU.

B26: 5mer-331 (peptide)
peptide: RGIQR
Take B26: in the test with acetylcholine receptor [2], the Binding affinity (RU) was 79 RU.

B27: 6mer-2-448 (peptide)
peptide: RSFRRR
B27 returned a Binding affinity (RU) with acetylcholine receptor [1] of 128 RU.

B28: 6mer-2-450 (peptide)
peptide: RQRYRK
In the test with acetylcholine receptor [1], B28 gave a Binding affinity (RU) of 123 RU.

B29: 6mer-2-432 (peptide)
peptide: KVVRKR
In turn, B29 showed a Binding affinity (RU) with acetylcholine receptor [1] of 148 RU.

B30: 6mer-2-444 (peptide)
peptide: RQRLKK
Consider B30, for which, in the test with acetylcholine receptor [1], the Binding affinity (RU) is 141 RU.

B31: 5mer-28 (peptide)
peptide: RLLSR
In the test with acetylcholine receptor [2], B31 registered a Binding affinity (RU) of 74 RU.

B32: 6mer-2-429 (peptide)
peptide: RWRQRK
On to B32, for which the Binding affinity (RU) with acetylcholine receptor [1] is 123 RU.

B33: 6mer-2-427 (peptide)
peptide: RLQRRR
As to B33, in the test with acetylcholine receptor [1], the Binding affinity (RU) came to 147 RU.

B34: 5mer-27 (peptide)
peptide: KGYLR
In the test with acetylcholine receptor [2], B34 came in with a Binding affinity (RU) of 67 RU.

B35: 6mer-2-453 (peptide)
peptide: RLVRKK
In the case of B35, the Binding affinity (RU) in the test with acetylcholine receptor [1] was found to be 141 RU.

B36: 6mer-2-443 (peptide)
peptide: RQYCRR
Molecule B36 came in with a Binding affinity (RU) in the test with acetylcholine receptor [1] of 122 RU.

B37: 6mer-2-434 (peptide)
peptide: RVIRRK
B37: in the test with acetylcholine receptor [1], the Binding affinity (RU) was 154 RU.

B38: 6mer-2-459 (peptide)
peptide: KLFSRK
In the test with acetylcholine receptor [1], B38 displayed a Binding affinity (RU) of 139 RU.

B39: 6mer-2-447 (peptide)
peptide: RVYTKK
In turn, B39 had a Binding affinity (RU) in the test with acetylcholine receptor [1] of 139 RU.

B40: 6mer-2-435 (peptide)
peptide: RWVYKR
The molecule B40 had a Binding affinity (RU) with acetylcholine receptor [1] of 154 RU.

B41: 6mer-2-413 (peptide)
peptide: RLILKR
In turn, B41 showed a Binding affinity (RU) with acetylcholine receptor [1] of 136 RU.

B42: 6mer-2-416 (peptide)
peptide: RWRLRR
B42 gave a Binding affinity (RU) with acetylcholine receptor [1] of 131 RU.

B43: 6mer-2-441 (peptide)
peptide: KSQRKR
B43 returned a Binding affinity (RU) in the test with acetylcholine receptor [1] of 139 RU.

B44: 6mer-2-456 (peptide)
peptide: KSVTKR
In the test with acetylcholine receptor [1], B44 showed a Binding affinity (RU) of 147 RU.

B45: 5mer-29 (peptide)
peptide: KGFCR
In the case of B45, the Binding affinity (RU) with acetylcholine receptor [2] is 63 RU.

B46: 5mer-329 (peptide)
peptide: RRFCR
Turning to B46, in the test with acetylcholine receptor [2], the Binding affinity (RU) worked out at 79 RU.

B47: 6mer-2-452 (peptide)
peptide: KGLYKR
The molecule B47 came in with a Binding affinity (RU) in the test with acetylcholine receptor [1] of 146 RU.

B48: 6mer-2-426 (peptide)
peptide: KGQRRK
Regarding B48, in the test with acetylcholine receptor [1], the Binding affinity (RU) was 141 RU.

B49: 6mer-2-414 (peptide)
peptide: KWRQKK
B49 had a Binding affinity (RU) with acetylcholine receptor [1] of 135 RU.

B50: 6mer-2-430 (peptide)
peptide: RWFRRR
As for B50, the Binding affinity (RU) with acetylcholine receptor [1] was 139 RU.

B51: 6mer-2-419 (peptide)
peptide: RSRYKK
B51: the Binding affinity (RU) with acetylcholine receptor [1] came to 154 RU.

B52: 5mer-26 (peptide)
peptide: RQQQR
Regarding B52, in the test with acetylcholine receptor [2], the Binding affinity (RU) is 65 RU.

B53: 5mer-31 (peptide)
peptide: RRLQR
With B53, in the test with acetylcholine receptor [2], the Binding affinity (RU) was 65 RU.

B54: 6mer-2-431 (peptide)
peptide: KLILKR
Molecule B54 registered a Binding affinity (RU) with acetylcholine receptor [1] of 135 RU.

B55: 6mer-2-449 (peptide)
peptide: RGRCRR
As for B55, the Binding affinity (RU) with acetylcholine receptor [1] was 154 RU.

B56: 6mer-2-455 (peptide)
peptide: RWYSKR
In the test with acetylcholine receptor [1], B56 came in with a Binding affinity (RU) of 135 RU.

B57: 6mer-2-439 (peptide)
peptide: KWFSKR
For B57, the Binding affinity (RU) with acetylcholine receptor [1] turned out to be 153 RU.

B58: 6mer-2-463 (peptide)
peptide: KLLTRR
B58 had a Binding affinity (RU) with acetylcholine receptor [1] of 124 RU.

B59: 6mer-2-417 (peptide)
peptide: RWVYKK
Consider B59, for which, in the test with acetylcholine receptor [1], the Binding affinity (RU) was 151 RU.

B60: 5mer-30 (peptide)
peptide: KSQLR
B60 had a Binding affinity (RU) with acetylcholine receptor [2] of 70 RU.

B61: 5mer-326 (peptide)
peptide: RRFTK
For the molecule B61, in the test with acetylcholine receptor [2], the Binding affinity (RU) is 68 RU.

B62: 6mer-2-428 (peptide)
peptide: KVFLKK
In the case of B62, the Binding affinity (RU) with acetylcholine receptor [1] was found to be 142 RU.

B63: 6mer-2-411 (peptide)
peptide: RSRQKK
For B63, the Binding affinity (RU) with acetylcholine receptor [1] is 121 RU.

B64: 6mer-2-421 (peptide)
peptide: KVICRK
In the test with acetylcholine receptor [1], B64 displayed a Binding affinity (RU) of 124 RU.

B65: 5mer-327 (peptide)
peptide: RVLCR
On to B65, for which the Binding affinity (RU) with acetylcholine receptor [2] is 86 RU.

B66: 6mer-2-454 (peptide)
peptide: RSVQKK
B66 came in with a Binding affinity (RU) in the test with acetylcholine receptor [1] of 133 RU.

B67: 6mer-2-440 (peptide)
peptide: KQLSKK
B67 registered a Binding affinity (RU) with acetylcholine receptor [1] of 153 RU.

B68: 6mer-2-423 (peptide)
peptide: RLQYRK
In the test with acetylcholine receptor [1], B68 had a Binding affinity (RU) of 154 RU.

B69: 6mer-2-445 (peptide)
peptide: RLVCKR
B69 gave a Binding affinity (RU) in the test with acetylcholine receptor [1] of 145 RU.

B70: 6mer-2-424 (peptide)
peptide: RLYCKK
For B70, in the test with acetylcholine receptor [1], the Binding affinity (RU) was found to be 139 RU.

B71: 6mer-2-446 (peptide)
peptide: RQLQKK
B71 came in with a Binding affinity (RU) with acetylcholine receptor [1] of 153 RU.
